This is an account of results in article PMC8943206 (2022).

This assay has as its target T1, cGAS-His (human, UniProt Q8N884 1-522).
T1 chain: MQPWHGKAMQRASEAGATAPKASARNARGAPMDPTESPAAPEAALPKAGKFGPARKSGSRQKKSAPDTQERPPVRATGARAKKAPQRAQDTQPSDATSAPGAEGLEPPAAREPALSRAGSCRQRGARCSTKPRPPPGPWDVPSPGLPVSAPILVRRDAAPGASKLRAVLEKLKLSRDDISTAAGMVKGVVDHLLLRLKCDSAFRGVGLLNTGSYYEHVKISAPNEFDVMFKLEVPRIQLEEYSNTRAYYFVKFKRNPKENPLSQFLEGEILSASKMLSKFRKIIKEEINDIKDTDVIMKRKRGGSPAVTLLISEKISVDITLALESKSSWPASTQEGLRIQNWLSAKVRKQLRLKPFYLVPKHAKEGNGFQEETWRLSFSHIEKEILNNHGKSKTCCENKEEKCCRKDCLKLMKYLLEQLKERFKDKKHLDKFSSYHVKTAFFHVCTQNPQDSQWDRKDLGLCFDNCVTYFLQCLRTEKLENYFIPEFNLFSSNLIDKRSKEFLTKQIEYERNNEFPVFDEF
Description: SPR.

B1: GST-PCBP2 (natural protein)
chain: MDTGVIEGGLNVTLTIRLLMHGKEVGSIIGKKGESVKKMREESGARINISEGNCPERIITLAGPTNAIFKAFAMIIDKLEEDISSSMTNSTAASRPPVTLRLVVPASQCGSLIGKGGCKIKEIRESTGAQVQVAGDMLPNSTERAITIAGIPQSIIECVKQICVVMLETLSQSPPKGVTIPYRPKPSSSPVIFAGGQDRYSTGSDSASFPHTTPSMCLNPDLEGPPLEAYTIQGQYAIPQPDLTKLHQLAMQQSHFPMTHGNTGFSGIESSSPEVKGYWGLDASAQTTSHELTIPNDLIGCIIGRQGAKINEIRQMSGAQIKIANPVEGSTDRQVTITGSAASISLAQYLINVRLSSETGGMGSS
Broadly, the Kd is the concentration at which binding is half-saturated. Low values mean a tighter complex, high ones a looser complex. The molecule B1 returned a dissociation constant Kd of 470 nM.
